The data set relates to ribosomal protein L5 (TbL5) (Trypanosoma brucei). Description: EMSA. The note with it: EMSA: 10 mM Tris-HCl pH 7.4, 150 mM KCl, 0.1 mM DTT, 0.1 mM EDTA, 0.1% NP-40, 20 min room temperature; filter binding: 10 mM Tris pH 7.4, 1 mM EDTA, 100 mM ….

T. brucei 5S rRNA returned a dissociation constant (Kd) of 12 nM.

Values taken from PMC3409183.
